Target: GMPCPP microtubules containing 7% rhodamine-tubulin
Assay: single-molecule TIRF microscopy on immobilised microtubules; GMPCPP microtubules held on the coverslip by anti-β-tubulin antibodies, motors in solution (CENP-E483-2mNeon 50 nM, CENP-E483LZ-2mNeon 5 nM, CENP-E754-2mNeon 3.5 nM, CENP-EFL-mNeon 12.5 nM; landing rates at 3.5 nM); 80 mM PIPES pH 6.9, 5 mM MgCl2, 2 mM ATP, 1 mM DTT, oxygen scavenger mix; 30°C; residency time is the decay constant of a single-exponential fit

## full-length human CENP-E-mNeonGreen, Q02224 1-2701
  landing rate (events µm^−1 min^−1): 0.147
  residency time on the microtubule: 37.1 s

## CENP-E483LZ-2mNeon (from UniProt Q02224 1-483)
  residency time on the microtubule: 6.36 s

Source: publication PMC8905165
